Data: patent publication US20150065436A1 (UNIVERSITY OF SOUTHERN CALIFORNIA, published 2015)
Ends that are not written are not given here.

Key:
[1] = target: T1, p300-CH1 (cysteine-histidine rich 1 domain of human coactivator protein p300, amino acid residues 323-423) (human, UniProt Q09472 323-423, uniformly 15N-labelled; folded with 3 equivalents of Zn2+); assay: fluorescence polarization, p300-CH1 titrated into 15 nM fluorescein-labeled HIF peptide
T1 construct: range 323-423; Expressed in E. coli from pGEX-4T-2 as a GST fusion; also called p300 CH1 domain; 15N-labeled p300-CH1

[2] = target: T1, p300-CH1 (cysteine-histidine rich 1 …); assay: fluorescence polarization, p300-CH1 titrated into 15 nM fluorescein-labeled HIF-1α C-TAD786-826

T1 sequence (Q09472 323-423 limits assumed): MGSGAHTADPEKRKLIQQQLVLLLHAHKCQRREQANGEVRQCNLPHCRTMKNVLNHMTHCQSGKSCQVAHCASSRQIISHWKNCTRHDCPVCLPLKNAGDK

Kd [1]: 31 nM
EC50 (read off the curve) [2]: ~40 nM
Kd [2]: 31.9 nM
B1: fluorescein-labeled HIF-1α C-TAD786-826 (peptide)
peptide: SMDESGLPQLTSYDCEVNAPIQGSRNLLQGEELLRALDQVN
modifications: also: fluorescein label, site shown only in structure
notes: Fluorescent probe of the polarization assay; also called Flu-HIF C-TAD
